pKd: −log10 of the molar value.
Target: GST-NS1 (Influenza A virus (H3N2)) (UniProt P03495)
Test: fluorescence anisotropy

Chain of GST-NS1 (Influenza A virus (H3N2)) (P03495 whole entry): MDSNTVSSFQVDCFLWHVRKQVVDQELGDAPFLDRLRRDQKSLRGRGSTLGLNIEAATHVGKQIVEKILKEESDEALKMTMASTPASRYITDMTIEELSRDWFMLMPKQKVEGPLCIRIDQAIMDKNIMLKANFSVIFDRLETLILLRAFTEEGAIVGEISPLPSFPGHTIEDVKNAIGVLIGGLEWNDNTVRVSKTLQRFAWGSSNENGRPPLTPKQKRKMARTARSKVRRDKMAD

Sequence | pKd
GCUAUCCAGAUUCUGAUU / GAAUCAGAAUCUGGAUAGC [dsCR1] | 5.62
GGGGGGGGGGGGGGGGGU [Poly (G)18] | 5.92
CCAUCCUCUACAGGCG / CGCCUGUAGAGGAUGG [dsRK1] | 6.77
